Results reported in paper PMC6771557 (Diabetes, Obesity & Metabolism, 2019).

Assays:
[1] = Safety: adverse events and hypoglycaemia; type: in vivo, Japanese people with type 2 diabetes mellitus; settings: n=20
Procedure: Patient safety was monitored from adverse events (AEs) spontaneously reported by a patient or noted by an investigator, including hypoglycemic events. All AEs, regardless of seriousness or relationship to the study drug, were recorded in each patient’s records from the time the informed consent form was signed. Treatment emergent AEs (TEAEs) were defined as AEs that occurred or worsened or became serious during the treatment phase.
Evaluation of safety was based on the review of individual values and descriptive statistics. All safety analyses were performed in the safety population. Individual values were flagged for potentially clinically significant abnormalities (PCSAs) if appropriate.

[2] = system: postprandial plasma glucose (PPG); assay: Postprandial plasma glucose after standardized breakfast, single s.c. dose, phase I crossover study; type: in vivo, Japanese people with type 2 diabetes mellitus; settings: insulin glargine 5 U single s.c. dose; at 2 hours post-dose
Procedure: This was a phase I, single‐centre, randomized, open‐label, placebo‐controlled, four‐sequence, four‐period, four‐treatment crossover, single‐dose study.
Inclusion and exclusion criteria are provided in Appendix S1. […] There was a washout period of 7 to 14 days between dose administrations.
The secondary endpoints are described in Appendix S1.
The PD analyses were performed using the evaluable PD population. PPG–AUC0–2h was analysed using a linear mixed‐effects model with treatment group, sequence and treatment period as fixed effects, patient‐within‐sequence as a random effect, and baseline value as a covariate. The least squares (LS) mean differences were calculated between iGlarLixi groups and placebo, between the two iGlarLixi groups, and between iGlarLixi 5 U/5 μg and insulin glargine. The corresponding 95% confidence intervals and P values were calculated within the linear mixed‐effect model framework. P values < 0.05 were taken to indicate statistical significance. No adjustment for multiplicity was performed. […]
Secondary endpoints for PD included maximum postprandial plasma glucose (PPG) (PPG-Cmax), time of PPG-Cmax (PPG-tmax) and PPG-AUC0-5. In addition, serum insulin, serum C-peptide, and plasma glucagon concentrations were analyzed as secondary endpoints, and appropriate PD parameters such as AUCs were evaluated as applicable. […]

Q: Which results are given for insulin glargine?
A: Patients with any TEAE ([1]; insulin glargine 5U single s.c. dose, up to 24 hours after injection): 0 n; Patients with any TEAE leading to permanent treatment discontinuation ([1]; insulin glargine 5U): 0 n; Patients with any severe TEAE ([1]; insulin glargine 5U): 0 n; Patients with any treatment emergent SAE ([1]; insulin glargine 5U): 0 n; time of peak of mean plasma glucose concentration after breakfast start [2]: approximately 1 hour
